Reference: the DeepSol protein solubility set

assay: soluble on expression in E. coli; label from the status in PepcDB or PDB records

Sequence | soluble on expression in E. coli
MAATRAYHHGDLRRSVLSAALEVIRSDGVAAISLRDLARRAEVSHAAPAHHFKDKAGLLTAIATEGFELLAAALTAVPAGTTHRLREMGVRYVEFALDHPAHFDVMFRPQLLHVGDPELTAARERASRALASGVEDLPDMRAGLDARRAGLTAWSLAHGFATLQLGGSLPPLDDDPAEAFRALVADRLVVRLP | not soluble
SLLNVPAGKDLPEDIYVVIEIPANADPIKYEIDKESGALFVDRFMSTAMFYPCNYGYINHTLSLDGDPVDVLVPTPYPLQPGSVTRCRPVGVLKMTDEAGEDAKLVAVPHSKLSKEYDHIKDVNDLPELLKAQIAHFFEHYKDLEKGKWVKVEGWENAEAAKAEIVASFERAKNK | soluble
MSLNNKGSGLTPAQALDKLDALYEQSVVALRNAIGNYITSGELPDENARKQGLFVYPSLTVTWDGSTTNPPKTRAFGRFTHAGSYTTTITRPTLFRSYLNEQLTLLYQDYGAHISVQPSQHEIPYPYVIDGSELTLDRSMSAGLTRYFPTTELAQIGDETADGIYHPTEFSPLSHFDARRVDFSLARLRHYTGTPVEHFQPFVLFTNYTRYVDEFVRWGCSQILDPDSPYIALSCAGGNWITAETEAPEEAISDLAWKKHQMPAWHLITADGQGITLVNIGVGPSNAKTICDHLAVLRPDVCYIGHCGGLRKVRPLADYVLAHAYLRDDHVLDAVLPPDIPIPSIAEVQRALYDATKLVSGRPGEEVKQRLRTGTVVTTDDRNWELRYSASALRFNLSRAVAIDMESATIAAQGYRFRVPYGTLLCVSDKPLHGEIKLPGQANRFYEGAISEHLQIGIRAIDLLRAEGDRLHSRKLRTFNEPPFREGHHHHHH | soluble
MGSDKIHHHHHHMTTSEAPQCPYHLKQSLTRRPTAGARPSAAIEVDGNGIYRIHAFQAARDILRSNSVRQAGFMSESARGVRGLGNPPVLFEEGEKHHEMRRSTARYFTPTQVAEYQPMIAALADDLIAELIRRGEMNLDDLSLRLAVNVAARVVGLTSSRVPGLERRVISFVESGGDSEPSSTQPRKSRLESLRQQAKMALFYFLDVKPAIAARRQQRQDDLISHLLDREYNDLEILTECLTYGTAGMVTTREFISVAAWHLLRNPGLRAEYVHGTEPERHAILHEILRLEPVVTMLYRRAEGELTVAGQTIPAGSLLALHLQEANTDPAVAGADAEQLCPGRTLPRGVAPQVLAFGDGHHRCPGAFLAIKESDVFLRRLLVWQDLEIVSEPEVNSNEVVKGYELRGFRVRLGRAARP | not soluble
MGSDKIHHHHHHMRLTIHHTTRYRFDEPVSFGLQQLRKTPKTNTNQQVVEWQTRIIGGQKEVSFDDHHHNVTELISFEPGVTELELVSEGVVELTDTHGVVGRHRGPSPLWLYARPTVLTEARAGVRELIRDLDDSNPVDMLHQLSARIREAITYQIGVSELGWSAEDAIQSAHGVCQDHAHVFIACARKLGLPARYVSGYLMLDDRTTQDAMHAWAEAHVEGLGWVGFDVSNGISPDARYVRVATGLDYSDAAPVSGTRIGGAGEALDVQIEVAQQ | not soluble
MQILFNDQAMQCAAGQTVHELLEQLDQRQAGAALAINQQIVPREQWAQHIVQDGDQILLFQVIAGG | soluble
ADFEVHMLNKGKDGAFVFEPASLKVAPGDTVTFIPTDKGHNVETIKGMIPDGAEAFKSKINENYKVTFTAPGVYGVKCTPHYGMGMVGVVQVGDAPANLEAVKGAKNPKKAQERLDAALAALGN | soluble
MLKTNSSRDGKIKLTVDQMLGKLARWIRLMGYDVYYPAGNVSDNEIIEVSKNEGRILITKDYELYSRYPLSIYELYSNIDDQLYDFVFHFRKRTEEEFKRCPVCNGKLVKVYASPHVLNHRDLYRCEFCGKLYWKGTHYKKIYRKLKSLEKKSGAGRLEHHHHHH | not soluble
MKELDKIDFRILKILQQNARIPMTELAEKVGLSTTPVTERVRRLEREHYISGYHAHLNPHLLGKPLLVFVELKLQSKSGNIFEDFKKEVLKIPQIMECHLVSGEYDYLIKVRLPDMSAYRDMLGNILLQLPAASESRSYVVMEEVKENPVLDLD | soluble
MGSDKIHHHHHHAKDKDAYRQYGINCIENGSYDDAVDAFQKALDQSVGSVGAEELDICYYKAKAQYLSGDVDGAIDTYTAIIDYNKDSDAYYLRGCIYFAKNDSDKGLKDFKTALSENNDNYELYLGVYETLSKYGMNDQGKEYLDNALKLKAKTADDYMQRGRIYTMLGDYDSAIKSLQKAIDEKLVKANYYMGEVYQKKGDNDSSQKYFKKYLDSGEADSYELMNMGQAQMDNGNYDTAITYFQNALELESVPNKQQITKAMIIAYEYSGDFATAKSKMEEYMKDYPDDEDAAREYQFLETR | not soluble
YIWIEHRTIHQHVDESQSSLHHTEKQIQTFITQHNNSFQELDLTNHHDVTATKRELLKLIHQQPATLYYELSGPNQFITNNYEHLNTKNMYLFSTHQLKFNNSTYMLKIYMANTPRLSEIKKDSRQFALIVDQYDNILYANDDRFTIGEKYRPQQFGFMNESVKLNHADHRLIIYKDIHENIED | not soluble
MGLYAISDLHLAFNLDKPMNIFGEEWSKHDEKIKKNWISKISEEDTVLIAGDISWSMDIENGEEDLNWIDCLPGKKIICKGNHDYWWKSITKLNNMYKSISFLQNNFFEYKDYAICGTRGWIDKSFDSFDEHDKKVYKREIIRLRLSLDAAVKKGYSKFIVMFHYPPFKDENSGSEFTEVLEEYKVEKAIYGHLHGPALKNISGSIVKNGVEYMLTSCDYIEFNPIKIDLKLEHHHHHH | soluble
MAHHHHHHMTHTGAAAASGASASTLSSQSTAAVASDDAFSEQHQGQKQRNLLRCFALADLLGVSPTVVQQLANAAATPSSSLHHARNTSRASSHCSTESDPVIRAYQLEQILVAAVVKQLFDRCCDPDQSIQNGGSVDAGQPAASSVSTTARQPARKHQPSSLKAPPWSAALSEPRRACTSPQQPDGERLLPSVLSSPQGVARVDALHASFLPLLLVALLQRVSEGSGGDTQATDATVPRQTPDTNAAASNTSAAVFSLRQQRSFRTALHQLLPLYTPLLLQRRRAARAVVSSVVVALQEYPCSGHDDGESTTEEEESRKRIQRLVHQGLCCSEVKQWLHAARLLSDTLVACLSHVSPRASIAATAPPPAIRRRRGGRGRFDGGAVDTGDGRGVAECGRDAPPRWRVGGGGAASVRSLVVGIRYERFEWCRAARARRQHPCKCWGPNEPTRAVHHHHHCRGARACRGHVYRRRGDVRRHLAPRGWPFWRTAAAATVELCSCWWSHSADTTRCTDTLSR | not soluble
MLDDVLALIREHDRFFITTHLGPDGDAVGSQLALGRFLEKMGKSVAMVNADEVDYNLDWMPGAGDIAVFDGSLGQHEALAEAEVAFVLDTNDEERIGKVGSLVRDATATTVLVDHHLEPEHWFDVFFVREEAAATGELVYEIIDGLAPDLIDEGIATALYTAIMTDTGSFRYSSVTPALHRSVADILERGGIGPAPIHETIYDRKSMPGLRLLGRMLNRIRLRYNGQLGYSVVTQRMVEDTGASWDDKQGFVNYVLSIEDVKTALLFSETDDGAKISFRSEADVRVDQWARHFGGGGHRNAAGAYVKRPTFEKTIETVIDAASDYIAFDARHAPDDDLSPEDQSYLETLLDDPSDSPLEHHHHHH | not soluble
MSERLEVSIEGEDDFPFDEDNIQELDHFDIGEDEDPEEVAQEDAGVWQERVPLTRQKRKQVLRKPGRKRTGEIIHIPKRQPPRAVRVKSYQQYDAFDELVEQDLDDSDPEVMDDDGEPSTSKTWRIFVRKDGSGMHFDWPIFMDSAVSLKDVVNFISTDASEIPKSLICTSIPQEFTNTGTFIIHLEEGLLKEEICNDGLGTWNSAQMFVRKYVLGVGRARPLMTQKNDHNLKHIFISGFDKDEHMIPYVVICYEWMGQPHPLTVYEDQTEKQAFEQMTWKKCSNPEDQVPILARHGCDYNSAVAILLSSEKCTNYGKSVPQFVQECISFVIDINECGGDRALFLDGNEWQRPSGSHRFFRILYPNQDHGDFDTWNIERASSNFNVTNSDIQIICRRYNGQKYSQSFGFVRKIYLLKILPLCPPEVAEQLHNRDLAVISYSYRNAPHPTFIEQPDRQKLPDGQRVGEEVELVSGDVMFDDDISPEMREMVENMERKKKINSERLMELLQRIHRIDQICKKEAWLESSAEVQQLTQIAQLLHYCQ | not soluble
MSLKSPPKKDEENVKINNMFKCGFYSFKGNRTYNEDRVIIIEDMNNFLKENIINNIKDMETPSYIYCAIYDGHNGDNAVNIVQKLLHIHMYYYFINGNGLENSLKYSFQEIDNYLCKNIINIKEENHSNYSSGTTACVSVIFKNMLYVANIGDSRCIISKNGRAIVLTVDHRASINKKEQDRILKSGGILDDEGYLGGCLGVCRGFGSFHKKTKEKLKGLICEPDLFHIKLTDDDEFLIICCDGIFDVITSQEAVNTVKNSLIQSRDAKTAAEALCQLAYKKKSLDNLSVLVVIFQNPDKEGHHHHHH | soluble
MSLNLNVLEIKSFVPAQDFTTSKQFYLSLGFELITEFGDVAYLRLGQCAFLLQNTHQRPHQGNTMMHLLVEDAQSWFDHVKTLQLEERFESKVTDLITQPWGMLEFCLVDPSDVLWRIGQRIGEGHHHHTTDPNSSSVDKLAAALEHHHHHH | soluble
MLLPKFLLLTAFLEFASAICADSNDQEIKGFCFKFVTQQLTFTDARTWCHLKNPVGPSYLAYVPSQDTSTYLAFYARSAFGADAEVFWIGLSRNASSGSLSWDNGLPVAYTNFGTNVGKNYFTESISNTKWDTLGDGDLNFFVCSYAPIVNSTTMTSITGTTKRMTTTTIEKLNCKPGDHQIILFAYSNDLAPSVVTDALYYSSLSSQSVTYAVSRFDLRQPEDIQYFSDYSLFSSYVSSHLPDYTLGFEEATTGSNVFEVINKFYDNTQATCGSNLIILSKRYPNTADVSNIVLKVRKSQGMVNFLASHAPSGGTVSQGLYDLCSLTNGIYSIGRDSSFSNMIESMPIRYRYAIYADNPKVSGQGSQTLASMSVPADGTYYLSMMLQNHTPVNTTQSVLLHWYSPYSRYSSTASVHGLSFETNNNGANSEILDAAIYNVTLDFVYFTSETMQIRFYGTSTDHWLPYAD | not soluble
MGSDKIHHHHHHMALVKLQTQHFRNLLSAPVEFSPSFNLLYGANGSGKTSVLEAIGYLGLGRSFRVSRHQAVVAHGQSKLTVFGALDSGLLAQESSEKVEHRIGISRDVSLKETQLRVDGEAVRSLSFLAMHLPVSVIDPGVFDIVAGGPGKRRQFLDWLVFHVEPSFSSLWQQVQRVTSQRNQMLRNGRLDESLMRVWDSQYGALAESLSDIRETVFQRFKIAFESVLAELDAPWVEGLKMDFYPGWDRSTALTEVLVNHREQERRMGHTLYGPNRADIRLKFGGRPVAETFSRGQQKTLVILMKIAQGKVLSDLGKQVTFLLDDINAELDVRHRVMLARNLQELRCQVFITSIEHPEPDTLWHDGDTPEYRMFHVEHGQLTEE | not soluble
MIAIISLPGISMASSKSLQQAIANIKIWHKGEQRAPHKPLLLLYVLAGYLNGHPRLFDYGTEIYEPLHSLLERFGPQRSQYRPDMPFWRLQGDGIWQLHNAERCSTAGSSRQPPVKELNEYHVAGGFDEQHYALVTGNKKLINTLAQQILEAHFTESIQEEIADELGFDLQQTRKQRDPLFRKNVLRAYNYQCAICGFNMRHDDTTVALEAAHIKWKQHGGPCEIPNGLALCAIHHKAFDKGSIGLDENMRVLVSDAVNGGGIVERLFWDFDGKTIALPQVRKNYPYEGFVGER | not soluble
